# Fewer inactive variants are shown than the library holds.
# B1: TPR 5TU (parent)
# chain: GGAUCUUCUCGAUCUAACAAAAAAGACAAAUCUGCCACAAAGCUUGAGAGCAUCUUCGGAUGCAGAGGCGGCAGCCUUCGGUGGCGCGAUAGCGCCAACGUUCUCAACUAUGACACGCAAAACGCGUGCUCCGUUGAAUGGAGUUUAUCAUG
# Variants of: B1
# Test: polymerase ribozyme fitness, log enrichment relative to wild type (log ratio); higher = more active; in vitro selection for triplet polymerase activity
# Summary of the method: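 Input and output libraries were sequenced on Illumina after a single in vitro selection round, run in triplicate on PCR-built, transcribed mutant libraries of each subunit of a heterodimeric triplet polymerase ribozyme. Selection annealed libraries to a biotinylated primer, the partner subunit and triplets, incubated them frozen at −7 °C, then gel-excised extended constructs for streptavidin-bead capture and RT-PCR. Genotypes with ≥10 input reads and ≥1 read per output were kept. Fitness is the logarithm, taken in base 2, of genotype enrichment divided by wild-type enrichment, using inverse-variance-weighted replicate averages.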
row,Variant,polymerase ribozyme fitness (log ratio)
1,C5G C38A A39C A60U A73G G94U U104A A138U,≤ -4.2
2,C5A C54U C87U U148C,-2.76
3,C5G C38A G58U,-1.06
4,C5A A37U C51U U56A C79A C96G C116G G133C,≤ -4.2
5,C5G C69G C93U,-4.12
6,U4C G42A A49C G50C C51U C79G A91U A121G,≤ -4.2
7,U4G C114U,-2.01
8,C5G C32U C96U A122G,-3.38
9,U4C U7G C27U U31A G68U G88U,≤ -4.2
10,U4C A16C A19U G86U C96A C108A,≤ -4.2
11,C5A C57U C85U,0.39
12,C5G A37U G141U,-1.94
13,C5A G92A U104G A120U C123A U130G,≤ -4.2
14,U4G G94A A115U U151G,≤ -4.2
15,C5A A12U,0.264
16,U4C U6G U55A C93G C103G A150U,≤ -4.2
17,U4G A19G A23G G59U A66U G141C,≤ -4.2
18,U4C C5A C10U U33A G88C C116U G140A,≤ -4.2
19,U4C C57A C87A U146A A150C,≤ -4.2
20,U4G U55G,-0.607
21,C5A A20C,0.413
22,U4C A21U C57G A60G C85A A89C G94A,-2.06
23,U4G A39U A40U A91U C95G,≤ -4.2
24,U4G C54G C95G,-3.63

row,Variant,polymerase ribozyme fitness (log ratio)
1,C5A A60G,0.956
2,U4G U9C A23U C43A U56G C87U U111G C132U,≤ -4.2
3,C5G A49U C57U C93G C103G U144C,≤ -4.2
4,C5A C38U G59A C87G C103A A121U G126A U146C,≤ -4.2
5,C5G A39C C87A G126A G136C,≤ -4.2
6,C5A U7C A22U C103G,-2.38
7,C5A G92A,-1.42
8,U4G U9A C35A G48C U134G,≤ -4.2
9,C5A U13G C27A G34A G42C C96A,≤ -4.2
10,C5G C35U A52C G59C A106G C108A C114U A119U A122U G133U,≤ -4.2
11,C5A U61A U102G,≤ -4.2
12,C5G C38U A39C C95A G100C,≤ -4.2
13,U4C C96G,0.0289
14,U4C A47U C85U C105A C116G G143A A147U,≤ -4.2
15,C5G A29U A64U G86U A150G,≤ -4.2
16,C5A U78C A89U C95U,-1.72
17,U4C C5A C87A A91G U145A,≤ -4.2
18,U4C C35U A47C U78G G136C,≤ -4.2
19,C5G C14G A41C G48C G126A G140A,≤ -4.2
20,C5G C54U U56A C99U,-1.99
21,U4C U55A,-0.767
22,U4C A16G A21G A41C A49U U56A G86A U135A A150G,≤ -4.2
23,U4G A49G C87G,≤ -4.2
24,C5A C38U G50A A60G C95A C103U G126U,-3.13

row,Variant,polymerase ribozyme fitness (log ratio)
1,U4C C85U U101G A147C,-0.704
2,C5A C38U A66C C72U C79A C96A G117A,≤ -4.2
3,C5A G81U C85G C99U U134A,-4.04
4,C5A G141U,0.735
5,U4G C69G C96U A142C,-3.64
6,C5A C96U,0.321
7,C5A U148G,-3.62
8,U4C C14U U15A A41C C93A C95U,≤ -4.2
9,C5A C76A C85G G133C,-2.61
10,U4G A21C C93G,-1.92
11,U4G C87A,≤ -4.2
12,U4G U31G G50C G68A C75A G86U C95U U101A,≤ -4.2
13,C5A C87U C129A,-3.51
14,U4G A28G A91G C93U A115U G133A,≤ -4.2
15,C5G A37U A40U C95A U139A,≤ -4.2
16,U4G G84A U109A A115C C123A,-2.01
17,U4G G25A U45G C87A C99A C103U C105G U139G G143A,-4.11
18,U4G C76U G84A C95U U111G,≤ -4.2
19,U4C G11A C57A C96U G124A A150C,≤ -4.2
20,C5A G42C,-4.02
21,C5A A47G C79A G83U G140A U146G,≤ -4.2
22,U4G C8U U56A G84A,-1.05
23,C5A A47U C76G G94C U101G,-4.01
24,C5G C10U C76A C87U G92A,-2.35

row,Variant,polymerase ribozyme fitness (log ratio)
1,C5A U9G C93G C103A C108G A113G A137G,≤ -4.2
2,C5A C14G A37U A52C C85G C99U G140U,≤ -4.2
3,U4C A22U A26U A40C A52U G67A U90A C99A A150U,≤ -4.2
4,C5A U7G G88U C105G G136A A137U G152U,≤ -4.2
5,U4G G58A C85U A115U U144G,-2.13
6,U4C C35G C96U,≤ -4.2
7,C5G C27U C38G G81A U104C A115C,≤ -4.2
8,C5G A41U G59C G84A,-2.99
9,U4G A17U C51U A52U C57A C75G G83U G117U G136U,≤ -4.2
10,U4C A17C G42A G50C U53A G62A U90G A120U,≤ -4.2
11,U4G C35U G83C G124U U146C,-2.43
12,U4G A97U,0.0622
13,U4C G48A,-1.42
14,U4C C14A C93G,≤ -4.2
15,U4G A37C C87U A122G C125A,-3.07
16,U4C U144G,0.832
17,U4C U33A A40U U82G C96G C108U C118U U139C U148A,≤ -4.2
18,C5G A23G G50C A52C C69G A119G,≤ -4.2
19,C5G A17G C38A A47C A60C U82C C95G C123U G143A A147G,≤ -4.2
20,C5A C69G G84A C108U,-3.39
21,C5A U6A G94U C123U U148G,≤ -4.2
22,C5G C18U A21C G86A C105A C123G,≤ -4.2
23,C5A G62C G67C G94A A106U,≤ -4.2
24,U4C A22U A73U C96G A120G,-2.21

row,Variant,polymerase ribozyme fitness (log ratio)
1,C5G A20G C51U A106G,-1.64
2,C5A A21U G50A C85A C96A C118G G133C C149U,≤ -4.2
3,U4G A19C C36A A119C G133A,≤ -4.2
4,U4C A17G C18A C57A G59A G68A C96A A107U A121U C123G,≤ -4.2
5,C5A A16U A52G A106G,-3.09
6,U4C C8A A39G U55A G88U C93U U102G,≤ -4.2
7,U4C A22C G48U C93G A122C,-3.98
8,U4C G11U G42C G48A U53G C57G G81U C85U,≤ -4.2
9,U4G C5A U55G,-0.269
10,C5G A120C,-0.488
11,C5G A28C A73G,≤ -4.2
12,C5A A28G C35G A37U C85G C96G C103G U151A,-3.65
13,C5G A37C G81A,-1.37
14,C5A U13G G81U G92C U145G,-2.12
15,U4G A19C G58U C69U C96A,-0.414
16,C5G A39G G88A C131G,≤ -4.2
17,U4C G11A G68A C72A G83U C93G G140A U148C,≤ -4.2
18,U4C A16C A17C,-0.602
19,C5A C54U U55A C95G C96A,-4.05
20,U4G A23U U44G C51U C76G C96U U148C,≤ -4.2
21,C5A A17U U45A G71C G84A A89U U104G U145G,≤ -4.2
22,U4G C8G A23C A52G C54G G74C,≤ -4.2
23,C5G C35U G50A U55A C57A A66C C87A U134C,≤ -4.2
24,C5G A89G C96U U135G,≤ -4.2

row,Variant,polymerase ribozyme fitness (log ratio)
1,U4G A47U G58C C93G,-4
2,C5A C27U C75A A142G U146G,≤ -4.2
3,C5G A17G,-0.0409
4,U4G A24G U44A U56G G94A A138C,≤ -4.2
5,C5G A20U C35U G50U C93U,-3.76
6,U4G C5G A29G A52U G67U C79G G83A,≤ -4.2
7,C5A G81A,0.566
8,U4G A23G C32U G62C G94C G126A G143U,-4.05
9,C5A U56A G58A C72U C87U U109G G136A U144C,-3.93
10,U4G A29C C75A C96U A115U U148A,-3.99
11,C5A G86U A107G G152A,≤ -4.2
12,U4C G50A G83A C87A A91C G92A U146A,≤ -4.2
13,C5G C38U G50A,-1.8
14,U4C A49G C51A C87A C132U A150C,≤ -4.2
15,U4G A40G C72G C87U U104G C118U A122G,≤ -4.2
16,U4G A20C C85U,-0.147
17,U4C G58U C75A A91U U104G U144A C149U,≤ -4.2
18,C5A C14G G94C G143A,-4.07
19,U4G G74A G84U U109A,≤ -4.2
20,C5G C14G C43G A73G G92U A97C,≤ -4.2
21,U4G C10A C35U G83U G88C A120C G143A,-4.17
22,C5A A40G C87U,-2.81
23,U4G U7G U13G C43A C54U U78G G94C,≤ -4.2
24,C5G A16G C35U C63A C85U,-1.82

row,Variant,polymerase ribozyme fitness (log ratio)
1,C5A A19U G86C A147C,-3.38
2,C5A U45C A64U C75A G141C U145C A150U,≤ -4.2
3,C5A U6G U13G U53A C116G G126U,-3.78
4,U4G U6G C85U G141A,-3.39
5,U4G,-0.0773
6,C5A A26U A52G G86A G88C A113U G141A,≤ -4.2
7,C5G A12G A21C A26U C38G U77A C118U,≤ -4.2
8,U4C C10U U56G A60U G92U,-3.76
9,U4C U31C C76G C116G,≤ -4.2
10,C5G C10U A49G U56A G74C C85U U90G C93U G100U A115C G141A,≤ -4.2
11,U4G A24U G62U C87U A89U,-3.44
12,C5A C76U,-0.144
13,C5G C14G C96A,-2.31
14,U4C C10U A20C A29U A52C A138C G140U,≤ -4.2
15,U4G A20C C43U U55A G59U A60G C87A A121G G141C,≤ -4.2
16,U4G A20U C93G U109A A138G,≤ -4.2
17,C5A G67C C103A G141U A150C,≤ -4.2
18,C5A,0.273
19,C5G,-0.157
20,C5G A12U U31A A41U C54U U56A G88A U127C A137C G141A,≤ -4.2
21,C5G A73U G124A,-1.49
22,C5A A37U,-0.964
23,C5G C8U A28C U33A U44A C85U U90A U139C,≤ -4.2
